Laboratory results published in the supplement of paper PMC7125110.
± gives the standard error. Fewer inactive variants are shown than the library holds.

B1: glmS ribozyme (parent)
chain: AUAAAAGCGCCAGAACUACAGAAAUGUAGUUGACGAGGAGGAGGUUUAUCGAAUUUUCGGCGGAUGCCUCCAAA

Key:
Conditions in all cases: with glucosamine-6-phosphate
glucosamine-6-phosphate [1] = variants of: B1; experiment: self-cleavage kobs at 640 uM GlcN6P; higher = faster cleavage; RNA array
Method in brief: (§1)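 Using a hybridised Cy3 probe at 37 °C, barcoded ribozyme variants transcribed in situ by E. coli RNA polymerase on sequenced MiSeq chips were monitored across tiles imaged over ~14 h. The flow contained glucosamine-6-phosphate from 40 μM to 10 mM in HEPES/KCl/Mg(OAc)2 buffer. Signals were normalised to baseline and to non-cleaving reference variants before per-tile medians were fit to one- or two-exponential decays to yield kobs. Weighted Michaelis–Menten fits across concentrations gave kcat and KM.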

glucosamine-6-phosphate [2] = variants of: B1; experiment: self-cleavage kobs at 2500 uM GlcN6P; higher = faster cleavage; RNA array
Method in brief: as §1

glucosamine-6-phosphate [3] = variants of: B1; experiment: self-cleavage kobs at 10000 uM GlcN6P; higher = faster cleavage; RNA array
Method in brief: as §1

Variant | self-cleavage kobs at 640 uM GlcN6P (glucosamine-6-phosphate [1]) [s⁻¹] | self-cleavage kobs at 2500 uM GlcN6P (glucosamine-6-phosphate [2]) [s⁻¹] | self-cleavage kobs at 10000 uM GlcN6P (glucosamine-6-phosphate [3]) [s⁻¹]
AUAAAAGCGCCAGAACUACAGAAAUGUAGUUGACGAGGAGGAGGUUUAUGGAAUUUGCGGCGGAUUCCUGCAAA | 0.000982 ± 0.0003 | 0.000139 ± 4.9e-05 | –
AUAAAAGCGCCAGAACUACAGAAAUGUAGUUGACGACGAGGAGGUUUAUCGAAUUUUCGGCCCAUGUCUCCAAA | < 1e-05 | – | –
AUAAAAGCGCCAGAACUACAGAAAUGUAGUUGACGAGGAGGAGGUUUAUUGAAUUGUCGGCGGAUGCCUGCAAA | 0.000278 ± 8e-05 | 0.000251 ± 5.8e-05 | –
AUAAAAGCGCCAGAACUACAGAAAUGUAGUUGACGAUGAGGAGGUUUAUCGAAUUUUCUGCGAAUGCCUCCAAA | < 1e-05 | < 1e-05 | –
AUAAAAGCGCCAGAACUACAGAAAUGUAGUUGACGAGAAUGAAGUUUAUCGCAUUUUCGGCGGAUGCCUCCAAA | < 1e-05 | – | –
AUAAAAGUGCCAGACCUACAGAAAUGUAGUUUACGAGGAGGAGGUUUAUCGAAUUUUCGGCGGAUGCCUCCAAA | < 1e-05 | < 1e-05 | –
AUAAAAGCGCCAGAACUACAGAAAUGUAGUUUACGAGGAGGAGGUUUAUCGAAUUUUCAGCGGUUGUCUCCAAA | < 1e-05 | < 1e-05 | –
AUAAAAGCGCCCUAACUACAGAAAUGUAGUUGACGUGGAGGAGGUUUAUCGAAUUUUCGGCGGAUGCCUCCAAA | < 1e-05 | < 1e-05 | –
AUAAAAGAGCCAUAACUACAGAAAUGUAGUUGACGAGGAGGAAUUUUAUCGAAUUUUCGGCGUAUGCCUCCAAA | < 1e-05 | – | –
AUAAAAGCGCCUGAACUACAGAAAUGUAGUUGACGAGCCGGAGGUUUAUCGAAUUUUCGGCGGAUGCCUCCAAA | < 1e-05 | – | < 1e-05
AUAAAUGCGUCAGAACUACAGAAAUGUAGUUCACGAGGAGGAGGUUUAUCGAAUUUUCGGCGGAUGCCUCCAAA | < 1e-05 | – | –
AUAAAAGCGCUAGAUCUACAGAAAUGUAGUUGACGAGAAGGAGGUUUAUCGAUUUUUCGGCGGAUGCCUCCAAA | < 1e-05 | – | –
AUAAAAGCGCCAGAACUACAGAAAUGUAGUUGACGAGGAGGAGAGUUAAGGAAUUUUCGGCGGAUGCCUCCAAA | < 1e-05 | < 1e-05 | –
AUAAAAGCGACAGAACUACAGAAAUGUAGUUGACGAGGAGGAGGUUGAUCGAAUUUUCGGCGGAUGCCUCCAAA | < 1e-05 | < 1e-05 | –
AUAAAAGCGGCAGAACUACAGAAAUGUAGUUGACGAGGAGUAGGUUUAUCGAAUAUUGGGCGUAUGCCUCCAAA | < 1e-05 | – | –
AUAAAAGCGCCAGAACUACAGAAAUGUAGUUGACGAUAAGUAGGUUUAACGUAUUUUCUGCGGAUGACUCCAAA | < 1e-05 | – | –
AUAAAAGCGCCAGAACUACAGAAAUGUAGUUGACGAGGAGGCGGUUGAUCGAAUUUCCGGCGGAUGCCUCCAAA | < 1e-05 | < 1e-05 | –
AUAAAAGCGCCAGAACUACAGAAAUGUAGUUGACGAGGAGGAGGUUUUUCGAAUGUUCGGCGGAUGCCUCAAAA | 2.8e-05 ± 1.3e-05 | – | –
AUAAAAUCACCAGAACUACAGAAAUGUAGUCGACAAGGAGGAGGUUUAUCGUAUUUUCGGCGGAUGCCUCCAAA | < 1e-05 | – | –
AUAAAGGCGCCAGAACUACAGAAAUGUAGUUUACGAGGAGGAGGUUUAUCGAAUUUUCGGAGGAUGCCUCCAAA | < 1e-05 | < 1e-05 | –
AUAAAAGCCCCAGAACUACAGAAAUGUAGUUGACGAGGAGGAGGUUUAUCGAAUUUUCGGCGGUUGCCUCCAAA | < 1e-05 | – | –
AUAAAAGCGCCAGCACUACAGAAAUGUAGUUGACGAGGAGGAGGUUUAUCGAAUUUUCCGCGGAUGCCUCAAAA | < 1e-05 | – | –
AUAAAAGCGCCAGUACUACAGAAAUGUAUUUGACGAGGAGGAGGUUUAUCGAAUUGUCGGCGGAUGCCUCCAAA | 0.000178 ± 4.1e-05 | 0.000206 ± 7.4e-05 | –
AUAAAAGCGCCAGAACUACAGAAAUGUAGUUGAAUUGGAGGAGGUUUAUCGAAUUUUCGGCGGAUGCCUCCAAA | < 1e-05 | – | < 1e-05
